Patent US20210403582A1 (JACOBIO PHARMACEUTICALS, published 2021)
Substitutions are numbered along the chain they refer to. Blank lines part the entries; values can stand above or below the binder they belong to.

Tests used:
human LIF protein [1] = biological target: T1, human LIF protein (human, UniProt P15018 23-202); assay: competition ELISA: human LIF coated at 1 µg/mL, LIFR-Fc 0.6125 µg/mL added together with the antibody, A450
T1 construct: Bought recombinant protein (Sino Biological / Yiqiao Shenzhou 14890-HNAH) in most assays; also called recombinant human LIF protein; rhLIF
Experimental: The recombinant human LIF protein was coated on the enzyme label plate at a concentration of 1 μg/mL, LIFR protein (expressed fusedly with human FC) at a concentration of 0.6125 μg/mL was added (50 μL/well), and the anti-human LIF antibodies 38E10E1C11, P36-033 and 38E10E1C11R which is recombinantly expressed by CHO cells (SEQ ID NOs: 41 and 43) at different concentrations simultaneously were added separately (50 μL/well) and incubated for 2 h at room temperature. After washed four times with PBST, incubated with HRP-labeled goat anti-mouse FC secondary antibody for 1 h at room temperature. Then the plates were washed four times with PBST and added with TMB coloured solution in for 10 minutes. The absorption value at 450 nm is quantitated using an enzyme-labelling measuring instrument, and the data was analyzed and plotted using Origin pro 9 software.

human LIF protein [2] = biological target: T1, human LIF protein; assay: BLI (Gator), antibody on anti-human Fc biosensor, human LIF in solution
Experimental: The affinity of anti-LIF antibody to human LIF protein was determined using Gator. The anti-human LIF antibody was first diluted to 5 ug/mL with PBS and then added to A-F wells in second column of the 96-well plate (200 μL per well). […] PBS was added to A-F wells in the first and third columns (200 μL per well). The 96-well plates were placed into the instrument and detected with anti-human Fc biosensor.

human LIF protein [3] = biological target: T1, human LIF protein; assay: ELISA, antigen coated 0.5 ug/ml, 293S supernatant non-heated, antibody 1 ug/mL
Experimental: (§1) Each well was coated with 100 μL of 0.5 μg/ml antigen and incubate overnight at 4° C., and the plates were washed three times with 300 μL of Wash Buffer. The plates were closed with 200 μL of Closure Buffer (2% bovine serum albumin) for 60 min at room temperature. The plates were washed three times with 300 μL of Wash Buffer. 100 μL of diluted anti-LIF antibody at different concentrations was added to each well and incubate for 1 hour at room temperature. The plates were washed 4 times with 300 μL of Wash Buffer. 100 μL of HRP-labeled goat anti-human Fc secondary antibody at a dilution of 1:5000 was added and incubate for 1 hour at room temperature. The plates were washed 6 times with 300 μL of Wash Buffer. 100 μL of H₂O₂-Amplx Color Development Solution was added for developing the color for 10 min at room temperature under dark conditions. The OD 450 value was read by an enzyme marker. Heat treatment: the expression medium was heated on the PCR machine at 70° C. for 5 min and then rapidly cooled to room temperature. Perform subsequent ELISA assays as above.

human LIF protein [4] = biological target: T1, human LIF protein; assay: ELISA, antigen coated 0.5 ug/ml, 293S supernatant non-heated, antibody 0.2 ug/mL
Experimental: as §1

human LIF protein [5] = biological target: T1, human LIF protein; assay: ELISA, antigen coated 0.5 ug/ml, 293S supernatant non-heated, antibody 0.04 ug/mL
Experimental: as §1

human LIF protein [6] = biological target: T1, human LIF protein; assay: ELISA, antigen coated 0.5 ug/ml, 293S supernatant heated 70 C 5 min, antibody 1 ug/mL
Experimental: as §1

human LIF protein [7] = biological target: T1, human LIF protein; assay: ELISA, antigen coated 0.5 ug/ml, 293S supernatant heated 70 C 5 min, antibody 0.2 ug/mL
Experimental: as §1

human LIF protein [8] = biological target: T1, human LIF protein; assay: ELISA, antigen coated 0.5 ug/ml, 293S supernatant heated 70 C 5 min, antibody 0.04 ug/mL
Experimental: as §1

[9] = biological target: T2, Mut3 heterozygous LIF protein (human LIF with residues 182-202 of …, UniProt P15018 23-201, limits assumed); assay: western blot of 293T culture supernatants, primary antibody 1 µg/mL, HRP anti-human Fc
T2 construct: Secreted into the supernatant of transfected 293T cells; also called Mut3 protein
Experimental: (§2) The supernatant of 293T cells transfected with human LIF full-length gene sequence, Mut3 and Mut4 protein sequences after 3 days of culture, and the negative control of 293T cell culture supernatant were taken, 5×SDS-PAGE loading buffer was added, and boiled for 10 minutes. Then 10 μL of sample was taken for SDS-PAGE electrophoresis, and then the electrophoretic bands were transferred to PVDF membrane for western blot detection. The primary antibody for detection was 38E huH3L2 or 38E huH3L4 antibody at a concentration of 1 μg/mL, and was incubated for 2 hours at room temperature. Then washed three times in PBST buffer and diluted HRP-labeled sheep anti-human Fc secondary antibody at a dilution ration of 1:3000 was added, incubated with the secondary antibody for 2 hours at room temperature, washed three times in PBST buffer and enhanced Chemiluminescent solution (Perice, item no. 34079) was added and incubated. An Amersham Imager 600 ultra-sensitive multifunctional imager was used for detection and photograph. […] The same results were obtained in the M1 cell proliferation assay, and the results were detailed in subfigure B in FIG. 22. Therefore, the epitope sequences recognized by the 38E huH3L2 and 38E huH3L4 antibodies were determined to be […] (SEQ ID NO: 61).

[10] = biological target: T3, Mut4 heterozygous LIF protein (human LIF with residues 166-202 of …, UniProt P15018 23-201, limits assumed); assay: as above
T3 construct: Secreted into the supernatant of transfected 293T cells; also called Mut4 protein
Experimental: as §2

human LIF protein [11] = biological target: T1, human LIF protein; assay: cell-based or functional assay
human OSM = biological target: T4, human OSM (human, UniProt P13725 26-221, limits assumed); assay: ELISA, human OSM coated at 1 µg/mL, HRP goat anti-mouse Fab, A450
T4 sequence (looked up): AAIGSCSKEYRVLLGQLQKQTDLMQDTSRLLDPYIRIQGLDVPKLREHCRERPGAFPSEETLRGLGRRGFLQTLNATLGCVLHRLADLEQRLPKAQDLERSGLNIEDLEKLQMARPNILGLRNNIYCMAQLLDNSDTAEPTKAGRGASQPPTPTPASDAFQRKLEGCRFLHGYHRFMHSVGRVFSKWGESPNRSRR
Experimental: (§3) After washed four times with PBST, HRP-labeled goat anti-mouse Fab secondary antibodies were added and incubated at room temperature for 1 h. After washed four times with PBST, TMB colored solution was added and color developing for 10 min at room temperature. The absorption value at 450 nm was read by the enzyme maker. The data were analyzed and plotted using Origin pro 9 software.

human IL-6 = human IL-6 (human, UniProt P05231 30-212, limits assumed); assay: ELISA, human IL-6 coated at 1 µg/mL, HRP goat anti-mouse Fab, A450
Chain of human IL-6 (P05231 30-212 limits assumed): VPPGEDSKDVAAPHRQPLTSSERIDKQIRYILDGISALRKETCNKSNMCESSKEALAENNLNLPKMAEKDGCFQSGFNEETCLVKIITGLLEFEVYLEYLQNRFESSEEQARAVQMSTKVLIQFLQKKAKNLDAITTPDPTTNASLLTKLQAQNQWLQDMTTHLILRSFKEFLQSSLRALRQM
Experimental: as §3

human CNTF = biological target: T5, human CNTF (human, UniProt P26441 1-200, limits assumed); assay: ELISA, human CNTF coated at 1 µg/mL, HRP goat anti-mouse Fab, A450
T5 sequence (looked up): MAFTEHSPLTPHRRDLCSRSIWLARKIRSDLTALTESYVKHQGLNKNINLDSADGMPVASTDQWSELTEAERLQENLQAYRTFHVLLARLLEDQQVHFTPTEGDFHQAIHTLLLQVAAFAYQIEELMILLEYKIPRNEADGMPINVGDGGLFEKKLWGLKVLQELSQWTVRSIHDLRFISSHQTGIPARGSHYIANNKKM
Experimental: as §3

human LIF protein [12] = biological target: T1, human LIF protein; assay: competition ELISA, LIF coated, competitor LIFR-Fc 0.6125 ug/mL detected with anti-human Fc

B1: 38E10E1C11R (38E10E1C11 antibody recombinantly expressed by CHO cells) (antibody, mouse IgG1, kappa)
heavy: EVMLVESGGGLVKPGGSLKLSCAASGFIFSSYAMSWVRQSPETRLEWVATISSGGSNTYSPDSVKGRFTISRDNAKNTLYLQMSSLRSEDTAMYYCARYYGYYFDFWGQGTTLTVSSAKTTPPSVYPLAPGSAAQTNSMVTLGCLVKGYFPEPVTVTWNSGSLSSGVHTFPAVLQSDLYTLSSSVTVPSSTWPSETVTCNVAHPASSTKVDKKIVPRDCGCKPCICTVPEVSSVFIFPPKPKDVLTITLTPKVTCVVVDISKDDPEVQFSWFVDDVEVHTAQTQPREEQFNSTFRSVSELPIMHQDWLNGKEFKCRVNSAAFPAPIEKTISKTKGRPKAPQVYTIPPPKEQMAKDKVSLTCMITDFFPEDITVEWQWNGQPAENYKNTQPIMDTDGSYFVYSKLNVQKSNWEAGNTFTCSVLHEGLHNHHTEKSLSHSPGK
light: DIHMTQSPASLSASVGETVTITCRASENIYSYLAWYQQKQGKSPQLLVYNAKTLAEGVPSRFSGSGSGTQFSLKINSLQPEDFGSYYCQHHYVTPLTFGAGTKLELKRADAAPTVSIFPPSSEQLTSGGASVVCFLNNFYPKDINVKWKIDGSERQNGVLNSWTDQDSKDSTYSMSSTLTLTKDEYERHNSYTCEATHKTSTSPIVKSFNRNEC
IC50 (read off the curve) (human LIF protein [1]): ~0.2 µg/mL

B2: 38E HuH3L2 (antibody, human IgG1, kappa, N297A)
heavy: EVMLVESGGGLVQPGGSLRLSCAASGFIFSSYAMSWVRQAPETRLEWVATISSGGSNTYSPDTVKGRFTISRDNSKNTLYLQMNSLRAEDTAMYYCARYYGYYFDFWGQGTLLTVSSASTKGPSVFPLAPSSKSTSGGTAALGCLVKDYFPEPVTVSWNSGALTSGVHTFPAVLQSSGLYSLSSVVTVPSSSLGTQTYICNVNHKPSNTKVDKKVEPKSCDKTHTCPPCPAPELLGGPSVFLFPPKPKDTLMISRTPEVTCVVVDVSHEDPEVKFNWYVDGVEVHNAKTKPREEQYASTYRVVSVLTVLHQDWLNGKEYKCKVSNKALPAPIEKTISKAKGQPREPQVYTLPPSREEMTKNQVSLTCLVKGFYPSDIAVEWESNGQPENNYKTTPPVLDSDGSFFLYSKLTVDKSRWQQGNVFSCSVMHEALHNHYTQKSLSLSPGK
light: DIHMTQSPSSLSASVGDRVTITCRASENIYSYLAWYQQKPGKSPKLLVYNAKTLAEGVPSRFSGSGSGTDFTLTISSLQPEDFATYYCQHHYVTPLTFGQGTKLEIKRTVAAPSVFIFPPSDEQLKSGTASVVCLLNNFYPREAKVQWKVDNALQSGNSQESVTEQDSKDSTYSLSSTLTLSKADYEKHKVYACEVTHQGLSSPVTKSFNRGEC
notes: Humanized, human IgG1 / kappa
Kd (human LIF protein [2]): 0.0538 nM
koff (human LIF protein [2]): 3.39e-05 s⁻¹
kon (human LIF protein [2]): 631000 M⁻¹ s⁻¹
ELISA signal (human LIF protein [3]): 11300
ELISA signal (human LIF protein [4]): 10600
ELISA signal (human LIF protein [5]): 6600
ELISA signal (human LIF protein [6]): 9450
ELISA signal (human LIF protein [7]): 8780
ELISA signal (human LIF protein [8]): 5060
binding result [9]: binds
binding result [10]: no binding (tested: primary antibody 1 µg/mL)

B4: 38E HuH3L2-m (antibody, mouse IgG1, kappa)
heavy: EVMLVESGGGLVQPGGSLRLSCAASGFIFSSYAMSWVRQAPETRLEWVATISSGGSNTYSPDTVKGRFTISRDNSKNTLYLQMNSLRAEDTAMYYCARYYGYYFDFWGQGTLLTVSSAKTTPPSVYPLAPGSAAQTNSMVTLGCLVKGYFPEPVTVTWNSGSLSSGVHTFPAVLQSDLYTLSSSVTVPSSTWPSETVTCNVAHPASSTKVDKKIVPRDCGCKPCICTVPEVSSVFIFPPKPKDVLTITLTPKVTCVVVDISKDDPEVQFSWFVDDVEVHTAQTQPREEQFNSTFRSVSELPIMHQDWLNGKEFKCRVNSAAFPAPIEKTISKTKGRPKAPQVYTIPPPKEQMAKDKVSLTCMITDFFPEDITVEWQWNGQPAENYKNTQPIMDTDGSYFVYSKLNVQKSNWEAGNTFTCSVLHEGLHNHHTEKSLSHSPGK
light: DIHMTQSPSSLSASVGDRVTITCRASENIYSYLAWYQQKPGKSPKLLVYNAKTLAEGVPSRFSGSGSGTDFTLTISSLQPEDFATYYCQHHYVTPLTFGQGTKLEIKRADAAPTVSIFPPSSEQLTSGGASVVCFLNNFYPKDINVKWKIDGSERQNGVLNSWTDQDSKDSTYSMSSTLTLTKDEYERHNSYTCEATHKTSTSPIVKSFNRNEC
notes: Humanized variable regions of 38E HuH3L2 on mouse IgG1 / kappa constant regions
EC50, reversal of proliferation inhibition of M1 cells (CCK-8) (human LIF protein [11]): 8.93 µg/mL
binding result (human OSM): no binding (tested: 25 ug/ml)
binding result (human IL-6): no binding (tested: 25 ug/ml)
binding result (human CNTF): no binding (tested: 25 ug/ml)
IC50 (human LIF protein [12]): 0.145 µg/mL

Now from value to binder, other results behind:

IC50, P-STAT3 (TYR705) in KP4 cells, HTRF kit (human LIF protein [11]): 3.42 nM
Kd (human LIF protein [2]): 0.0766 nM
koff (human LIF protein [2]): 4.44e-05 s⁻¹
kon (human LIF protein [2]): 579000 M⁻¹ s⁻¹
ELISA signal (human LIF protein [3]): 11900
ELISA signal (human LIF protein [4]): 11200
ELISA signal (human LIF protein [5]): 7060
ELISA signal (human LIF protein [6]): 9950
ELISA signal (human LIF protein [7]): 9060
ELISA signal (human LIF protein [8]): 5300
binding result [9]: binds
B3: 38E HuH3L4 (antibody, human IgG1, kappa, N297A)
heavy: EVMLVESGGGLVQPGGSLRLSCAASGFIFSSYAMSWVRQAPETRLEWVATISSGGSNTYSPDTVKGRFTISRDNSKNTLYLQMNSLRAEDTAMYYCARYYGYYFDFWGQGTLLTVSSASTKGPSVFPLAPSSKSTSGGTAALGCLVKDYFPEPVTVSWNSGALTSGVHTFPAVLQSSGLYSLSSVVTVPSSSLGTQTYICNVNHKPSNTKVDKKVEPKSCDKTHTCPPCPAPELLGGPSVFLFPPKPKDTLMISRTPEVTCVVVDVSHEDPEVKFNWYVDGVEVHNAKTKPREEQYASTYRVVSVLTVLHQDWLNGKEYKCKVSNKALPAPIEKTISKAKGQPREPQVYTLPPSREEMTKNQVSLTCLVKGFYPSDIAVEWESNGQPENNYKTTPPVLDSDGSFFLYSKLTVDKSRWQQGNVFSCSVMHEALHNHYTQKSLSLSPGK
light: B2 light with P40Q, K45Q, D70Q, T74K, S76N
notes: Humanized, human IgG1 / kappa
binding result [10]: no binding (tested: primary antibody 1 µg/mL)

EC50, reversal of proliferation inhibition of M1 cells (CCK-8) (human LIF protein [11]): 6.52 µg/mL
binding result (human OSM): no binding (tested: 25 ug/ml)
binding result (human IL-6): no binding (tested: 25 ug/ml)
binding result (human CNTF): no binding (tested: 25 ug/ml)
IC50 (human LIF protein [12]): 0.103 µg/mL
B5: 38E HuH3L4-m (antibody, mouse IgG1, kappa)
heavy: B4 heavy
light: B4 light with P40Q, K45Q, D70Q, T74K, S76N
notes: Humanized variable regions of 38E HuH3L4 on mouse IgG1 / kappa constant regions
